B1: ZNF263 (parent)
chain: PEASHLRFRRFRFQEAAGPREALS

Variants of: B1
Assay: protein stability index of a GFP-peptide fusion (GPS, HEK-293T) (PSI 1-6); higher = more stable
Details: c terminus: a fixed tail appended
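Note: lentivirally expressed fusions sorted by FACS into six bins by GFP to DsRed ratio, PSI derived from sequencing read proportions per bin multiplied by bin number.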

Row | Variant | protein stability index
1 | PEASHCRFRRFRFQEAAGPREALS | 2.6
2 | PEASHTRFRRFRFQEAAGPREALS | 1.98
3 | PEASHGRFRRFRFQEAAGPREALS | 3.46
4 | PEASHRRFRRFRFQEAAGPREALS | 3.06
5 | PEASHIRFRRFRFQEAAGPREALS | 2.42
6 | PEASHKRFRRFRFQEAAGPREALS | 2.73
7 | PEASHERFRRFRFQEAAGPREALS | 3.61
8 | PEASHSRFRRFRFQEAAGPREALS | 3.23
9 | PEASHFRFRRFRFQEAAGPREALS | 2.75
10 | PEASHNRFRRFRFQEAAGPREALS | 3.03
11 | PEASHQRFRRFRFQEAAGPREALS | 3.63
12 | PEASHDRFRRFRFQEAAGPREALS | 3.62
13 | PEASHMRFRRFRFQEAAGPREALS | 2.54
14 | PEASHPRFRRFRFQEAAGPREALS | 3.03
15 | PEASHHRFRRFRFQEAAGPREALS | 3.46
16 | PEASHARFRRFRFQEAAGPREALS | 3.3
17 | PENSHLRFRRFRFQEAAGPREALS | 1.98
18 | PEDSHLRFRRFRFQEAAGPREALS | 3.1
19 | PEQSHLRFRRFRFQEAAGPREALS | 2.55
20 | PEPSHLRFRRFRFQEAAGPREALS | 2.87
21 | PEGSHLRFRRFRFQEAAGPREALS | 2.95
22 | PEWSHLRFRRFRFQEAAGPREALS | 1.97
23 | PEMSHLRFRRFRFQEAAGPREALS | 3.55
24 | PEFSHLRFRRFRFQEAAGPREALS | 2.8

Row | Variant | protein stability index
25 | PECSHLRFRRFRFQEAAGPREALS | 2.95
26 | PEESHLRFRRFRFQEAAGPREALS | 2.82
27 | PESSHLRFRRFRFQEAAGPREALS | 2.59
28 | PEVSHLRFRRFRFQEAAGPREALS | 1.73
29 | PEISHLRFRRFRFQEAAGPREALS | 2.52
30 | PERSHLRFRRFRFQEAAGPREALS | 2.71
31 | PELSHLRFRRFRFQEAAGPREALS | 2.4
32 | PEYSHLRFRRFRFQEAAGPREALS | 2.38
33 | PETSHLRFRRFRFQEAAGPREALS | 2.52
34 | PEHSHLRFRRFRFQEAAGPREALS | 2.84
35 | PEKSHLRFRRFRFQEAAGPREALS | 2
36 | YEASHLRFRRFRFQEAAGPREALS | 2.3
37 | VEASHLRFRRFRFQEAAGPREALS | 1.85
38 | WEASHLRFRRFRFQEAAGPREALS | 2.08
39 | PEAWHLRFRRFRFQEAAGPREALS | 3.12
40 | PEAKHLRFRRFRFQEAAGPREALS | 2.04
41 | PEARHLRFRRFRFQEAAGPREALS | 2.19
42 | PEACHLRFRRFRFQEAAGPREALS | 2.87
43 | PEAEHLRFRRFRFQEAAGPREALS | 2.97
44 | PEATHLRFRRFRFQEAAGPREALS | 2.76
45 | PEAPHLRFRRFRFQEAAGPREALS | 3.78
46 | PEAQHLRFRRFRFQEAAGPREALS | 2.19
47 | PEAVHLRFRRFRFQEAAGPREALS | 1.93
48 | PEAHHLRFRRFRFQEAAGPREALS | 2.04

Row | Variant | protein stability index
49 | PEALHLRFRRFRFQEAAGPREALS | 1.83
50 | PEAAHLRFRRFRFQEAAGPREALS | 2.4
51 | PEAFHLRFRRFRFQEAAGPREALS | 1.87
52 | PEAGHLRFRRFRFQEAAGPREALS | 2.76
53 | PEAMHLRFRRFRFQEAAGPREALS | 3.15
54 | PEAIHLRFRRFRFQEAAGPREALS | 1.7
55 | PEADHLRFRRFRFQEAAGPREALS | 2.92
56 | PEANHLRFRRFRFQEAAGPREALS | 2.8
57 | PEAYHLRFRRFRFQEAAGPREALS | 2.83
58 | PWASHLRFRRFRFQEAAGPREALS | 1.52
59 | PNASHLRFRRFRFQEAAGPREALS | 2.52
60 | PVASHLRFRRFRFQEAAGPREALS | 2.12
61 | PDASHLRFRRFRFQEAAGPREALS | 3.22
62 | PTASHLRFRRFRFQEAAGPREALS | 2.4
63 | PAASHLRFRRFRFQEAAGPREALS | 2.88
64 | PKASHLRFRRFRFQEAAGPREALS | 2.83
65 | PMASHLRFRRFRFQEAAGPREALS | 1.75
66 | PQASHLRFRRFRFQEAAGPREALS | 2.11
67 | PCASHLRFRRFRFQEAAGPREALS | 1.08
68 | PLASHLRFRRFRFQEAAGPREALS | 1.29
69 | PRASHLRFRRFRFQEAAGPREALS | 2.84
70 | PYASHLRFRRFRFQEAAGPREALS | 1.82
71 | PIASHLRFRRFRFQEAAGPREALS | 1.72
72 | PHASHLRFRRFRFQEAAGPREALS | 2

Row | Variant | protein stability index
73 | PFASHLRFRRFRFQEAAGPREALS | 1.73
74 | PGASHLRFRRFRFQEAAGPREALS | 2.12
75 | PSASHLRFRRFRFQEAAGPREALS | 2.52
76 | PEASWLRFRRFRFQEAAGPREALS | 2.44
77 | PEASMLRFRRFRFQEAAGPREALS | 3.39
78 | PEASDLRFRRFRFQEAAGPREALS | 3.21
79 | PEASSLRFRRFRFQEAAGPREALS | 2.29
80 | PEASYLRFRRFRFQEAAGPREALS | 1.95
81 | PEASGLRFRRFRFQEAAGPREALS | 2.44
82 | PEASPLRFRRFRFQEAAGPREALS | 1.49
83 | PEASQLRFRRFRFQEAAGPREALS | 3.04
84 | PEASLLRFRRFRFQEAAGPREALS | 2.74
85 | PEASTLRFRRFRFQEAAGPREALS | 2.89
86 | PEASVLRFRRFRFQEAAGPREALS | 2.15
87 | PEASALRFRRFRFQEAAGPREALS | 2.61
88 | PEASCLRFRRFRFQEAAGPREALS | 2.55
89 | PEASRLRFRRFRFQEAAGPREALS | 2.68
90 | PEASNLRFRRFRFQEAAGPREALS | 2.31
91 | PEASELRFRRFRFQEAAGPREALS | 2.47
92 | PEASKLRFRRFRFQEAAGPREALS | 1.77
93 | PEASFLRFRRFRFQEAAGPREALS | 2.12
94 | PEASILRFRRFRFQEAAGPREALS | 1.91

— the supplement of paper PMC10567573
